Results published in patent US20230287080A1 (published 2023).

T1: NY-ESO-1 peptide on HLA-A*02:01 (human)
T1 peptide: SLLMWITQC


What was measured:
[1] = target: T1, NY-ESO-1 peptide on HLA-A*02:01; assay: multimer staining
[2] = target: T1, NY-ESO-1 peptide on HLA-A*02:01; assay: activation reporter or marker
Experimental: NY7 variant TCRs isolated by the work flow above were then functionally tested for potency and specificity. TCRs were expressed in Jurkat cells using a lentivirus vector, and TCR-expressing Jurkat cells were co-cultured with T2 cells and a varying dose of the NY-ESO-1 peptide. Activation was measured by luminescence using an NFAT-Luciferase reporter.

Row | Binder | binding result [1] | binding result [2]
1 | NY7JSY (TCR, V domains shown) Valpha: QKEVEQNSGPLSVPEGAIASLNCTYSDRGSQSFFWYRQYSGKSPELIMFIYSNGDKEDGRFTAQLNKASQYVSLLIRDSQPSDSATYLCAVMRAGGFKTIFGAGTRLFVKA Vbeta: DSGVTQTPKHLITATGQRVTLRCSPRSGDLSVYWYQQSLDQGLQFLIQYYNGEERAKGNILERFSAQQFPDLHSELNLSSLELGDSALYFCASSVVDGEQYFGPGTRLTVT | recognises | –
2 | NY7 variant, Table A TCR ID 5 (TCR, V domains shown) Valpha: QKEVEQNSGPLSVPEGAIASLNCTYSDRWSQSFFWYRQYSGKSPELIMFIYSNGDKEDGRFTAQLNKASQYVSLLIRDSQPSDSATYLCAVMRAGGFKTIFGAGTRLFVKA Vbeta: DSGVTQTPKHLITATGQRVTLRCSPRSGDLSVYWYQQSLDQGLQFLIQYYNGEERAKGNILERFSAQQFPDLHSELNLSSLELGDSALYFCASSVVDGEQYFGPGTRLTVT | – | recognises
